System: hES cells
Test: GCTM-2 quantification (alkaline phosphatase-coupled secondary antibody, OD 405 nm)
Assay type: cell-based, human
Description: hES-3 cells plated with MEF, were fixed in ethanol and immunostained with GCTM-2 and then with an alkaline phosphatase-coupled secondary antibody (Dako). The activity of alkaline phosphatase was detected by adding a solution of 4-nitrophenyl phosphate (Roche, Mannheim, Germany), followed by reading the optical density (OD) at 405 nm. In order to validate the technique as a relevant indicator of the proportion of GCTM-2 positive cells, standard curves were done with the teratocarcinoma cell line GCT27C4, known to express GCTM-2.
Cells were fixed in 100% ethanol and immunostained with GCTM-2 followed by alkaline phosphatase-coupled secondary antibodies (Dako). Alkaline phosphatase activity was detected by adding a solution of 4-nitrophenyl phosphate (Roche), and the concentration of the reaction product was determined by reading the optical density (OD) at 405 nm. In order to validate the technique as an accurate indicator of the proportion of GCTM-2 positive cells, standard curves were carried out with the embryonal carcinoma cell line GCT27C4, known to express GCTM-2 ^20.

B1: PDGF-BB: Human platelet-derived growth factor isoform BB (protein, UniProt P01127 82-190, looked up)
Platelet-derived growth …: SLGSLTIAEPAMIAECKTRTEVFEISRRLIDRTNANFLVWPPCVEVQRCSGCCNNRNVQCRPTQVQLRPVQVRKIEIVRKKPIFKKATVTLEDHLACKCETVAAARPVT
In the case of B1, the “GCTM2 levels, PDGF isoform added with S1P” value (Example 1, isoform added with S1P) is reported as 182.0±26.0 % of control and the “GCTM2 expression, PDGF isoform with S1P” value (Example 2, 2 weeks, isoform 20 ng/ml together with S1P) is reported as 294.3±77.3 % of control.
